Laboratory results taken from patent US20130280736A1 (MOUNT SINAI HOSPITAL, published 2013).

Tests used:
[1] = biological target: T1, prolyl-4-hydroxylase 2 (PHD2) (human, UniProt Q9GZT9 2-426, limits assumed); assay: preliminary experiments, method not described
T1 construct: Endogenous protein in human placental tissues

HIF-1αP402R-P564R = assay: Western blot of lysates of transfected JEG3 cells, β-actin as loading control
Protocol: Thus, the antibodies may be useful in predicting the severity of preeclampsia. The monoclonal antibodies were affinity purified, their IgG isotype was determined and their specificity validated (see Table 2 and FIGS. 7 and 8). The antibodies were validated using the following strategy. […] Following transfection with the various HIF-1α constructs, JEG-3 choriocarcinoma and HEK293 cells were cultured with proteosomal inhibitor MG-132 to prevent HIF degradation and Western blot and immunofluorescence analyses were used to establish the specificity and utility of the various clones. Validation experiments were run in parallel using both purified and non-purified clones to rule out potential changes in antibody performance following purification. The Western blot results unequivocally indicate that clones 1H1, 6H4 and 5A5 recognize HIF-P402^OH; clone 6A9 recognizes HIF-P564^OH; clone 7D6 recognizes both HIF-P402^OH and HIF-P64^OH; and clone 7E3 is excellent to detect total HIF-1α. […] Immunofluorescence analysis was conducted in cells and tissue sections.

T1 sequence (Q9GZT9 2-426 limits assumed): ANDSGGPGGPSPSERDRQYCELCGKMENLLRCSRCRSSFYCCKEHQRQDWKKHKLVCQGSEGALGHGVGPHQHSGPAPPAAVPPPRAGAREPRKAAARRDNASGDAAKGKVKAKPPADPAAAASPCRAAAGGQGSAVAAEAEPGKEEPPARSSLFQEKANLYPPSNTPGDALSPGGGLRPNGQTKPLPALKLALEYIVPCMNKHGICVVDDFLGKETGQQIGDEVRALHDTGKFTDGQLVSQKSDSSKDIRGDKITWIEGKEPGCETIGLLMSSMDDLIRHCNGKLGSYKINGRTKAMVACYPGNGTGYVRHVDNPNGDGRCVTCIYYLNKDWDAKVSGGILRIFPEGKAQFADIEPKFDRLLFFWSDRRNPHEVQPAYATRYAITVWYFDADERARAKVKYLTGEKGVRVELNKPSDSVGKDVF
Chain of HIF-1αP402R-P564R (chain, as listed by the source P402R P564R P402R P564R limits assumed): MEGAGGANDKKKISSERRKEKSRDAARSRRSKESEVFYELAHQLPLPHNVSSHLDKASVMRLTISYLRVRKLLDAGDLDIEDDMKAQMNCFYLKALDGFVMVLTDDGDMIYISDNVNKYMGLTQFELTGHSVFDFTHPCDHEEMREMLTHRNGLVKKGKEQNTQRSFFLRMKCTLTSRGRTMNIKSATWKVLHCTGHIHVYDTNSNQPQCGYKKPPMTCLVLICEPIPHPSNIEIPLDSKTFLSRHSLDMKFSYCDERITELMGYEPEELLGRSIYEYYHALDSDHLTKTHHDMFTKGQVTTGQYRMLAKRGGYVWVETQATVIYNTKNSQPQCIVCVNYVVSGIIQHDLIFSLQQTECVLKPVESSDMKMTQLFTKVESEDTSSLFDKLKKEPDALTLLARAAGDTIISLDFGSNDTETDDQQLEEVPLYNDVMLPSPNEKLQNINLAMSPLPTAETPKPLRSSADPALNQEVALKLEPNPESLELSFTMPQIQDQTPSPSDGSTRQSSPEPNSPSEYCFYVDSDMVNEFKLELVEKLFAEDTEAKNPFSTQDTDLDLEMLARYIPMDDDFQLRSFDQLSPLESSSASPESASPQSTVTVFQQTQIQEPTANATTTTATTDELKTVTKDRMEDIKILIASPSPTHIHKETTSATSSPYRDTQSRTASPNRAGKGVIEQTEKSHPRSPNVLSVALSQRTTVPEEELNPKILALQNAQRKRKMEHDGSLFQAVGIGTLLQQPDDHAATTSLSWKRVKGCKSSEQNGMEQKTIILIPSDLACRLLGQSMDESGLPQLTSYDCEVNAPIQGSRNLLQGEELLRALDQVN

B1: prolyl-4-hydroxylase 3 (PHD3) (enzyme, human, UniProt Q9H6Z9 1-239, looked up)
chain: MPLGHIMRLDLEKIALEYIVPCLHEVGFCYLDNFLGEVVGDCVLERVKQLHCTGALRDGQLAGPRAGVSKRHLRGDQITWIGGNEEGCEAISFLLSLIDRLVLYCGSRLGKYYVKERSKAMVACYPGNGTGYVRHVDNPNGDGRCITCIYYLNKNWDAKLHGGILRIFPEGKSFIADVEPIFDRLLFFWSDRRNPHEVQPSYATRYAMTVWYFDAEERAEAKKKFRNLTRKTESALTED
notes: Endogenous protein in human placental tissues; the method of the preliminary experiment is not described
[1]
  binding result: binds

B2: monoclonal antibody clone 6A9 (antibody, V domains shown)
VH: DVQLVESGGGLVQPGGSRKLSCAASGFTFSSFGMHWVRQAPEKGLEWVAFISSGSHTIFYADTVKGRFTISRDNPKNTLFLQMTSLRSEDTAMYYCTRDYNAYWGQGTLVTVSA
VL: DVLMTQTPLSLPVSLGDQASISCRSSQSIVHSNGNTYLEWYLQKPGQSPKLLIYKVSNRFSGVPDRFSGSGSGTDFTLKISRVEAEDLGVYYCFQGTHVPLTFGAGTKLEL
notes: also called anti-HIF-1αP564^OH
HIF-1αP402R-P564R
  binding result: no binding
